Measured values: paper PMC6224091 (2018)

B1: V5-Par6A (wild type) [not stated] / HA-Cdc42(G12V) [not stated] (parent complex)
chain 1: MARPQRTPARSPDSIVEVKSKFDAEFRRFALPRASVSGFQEFSRLLRAVHQIPGLDVLLGYTDAHGDLLPLTNDDSLHRALASGPPPLRLLVQKRAEADSSGLAFASNSLQRRKKGLLLRPVAPLRTRPPLLISLPQDFRQVSSVIDVDLLPETHRRVRLHKHGSDRPLGFYIRDGMSVRVAPQGLERVPGIFISRLVRGGLAESTGLLAVSDEILEVNGIEVAGKTLDQVTDMMVANSHNLIVTVKPANQRNNVVRGASGRLTGPPSAGPGPAEPDSDDDSSDLVIENRQPPSSNGLSQGPPCWDLHPGCRHPGTRSSLPSLDDQEQASSGWGSRIRGDGSGFSL
chain 2: not shown

Variants of: B1
Assay: co-immunoprecipitation (IP: GFP), quantified blot; HEK293T cells; HA-Cdc42(G12V) recovered in the GFP (YFP-Tuba) IP when co-expressed with the Par6A variant; n = 4; parent: 1; read off a plot

Row | Variant | ratio to parent
1 | chain 1 I133A, chain 1 S134A | ~0.21
